Results reported in patent publication US20250170238A1 (LANIER BIOTHERAPEUTICS, published 2025).

T1: Human IL-25 (made from human (HEK) sources) (human, UniProt Q9H293 33-177)
T1 sequence (looked up): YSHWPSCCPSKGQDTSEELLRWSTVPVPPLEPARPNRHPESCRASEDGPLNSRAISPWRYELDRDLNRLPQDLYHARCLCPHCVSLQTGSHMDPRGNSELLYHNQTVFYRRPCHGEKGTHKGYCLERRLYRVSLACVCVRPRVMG

T2: mouse IL-25 (made from mouse (NSO) source) (mouse, UniProt Q8VHH8 17-169)
T2 sequence (looked up): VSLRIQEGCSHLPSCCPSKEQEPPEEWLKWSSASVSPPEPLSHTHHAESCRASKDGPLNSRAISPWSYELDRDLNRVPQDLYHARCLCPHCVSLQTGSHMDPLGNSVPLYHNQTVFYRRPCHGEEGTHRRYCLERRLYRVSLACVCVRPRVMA

T3: Cyno Monkey IL-25 (HEK) (cynomolgus monkey, UniProt G7P9V9 33-176)
T3 construct: also called Cyno Monkey (HEK)
T3 sequence: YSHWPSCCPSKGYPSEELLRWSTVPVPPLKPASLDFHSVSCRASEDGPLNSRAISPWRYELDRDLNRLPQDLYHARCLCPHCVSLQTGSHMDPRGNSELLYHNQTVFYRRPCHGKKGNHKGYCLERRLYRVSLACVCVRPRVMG


Legend:
[1] = molecular target: T1, Human IL-25 (made from human (HEK) …); assay: cell-based or functional assay
[2] = molecular target: T2, mouse IL-25 (made from mouse (NSO) …); assay: cell-based or functional assay
[3] = molecular target: T1, Human IL-25 (made from human (HEK) …); assay: binding affinity, method not stated; human IL-25 made in HEK
[4] = molecular target: T2, mouse IL-25 (made from mouse (NSO) …); assay: binding affinity, method not stated; mouse IL-25 made in NSO
Cyno Monkey IL-25 (HEK) = molecular target: T3, Cyno Monkey IL-25 (HEK); assay: binding affinity, method not stated; cyno monkey IL-25 made in HEK

Potency IC50 in HT29 cell assay [1] [µg/mL]	Potency IC50 in HT29 cell assay [2] [µg/mL]	Kd [3] [nM]	Kd [4] [nM]	Kd (Cyno Monkey IL-25 (HEK)) [nM]	Binder
100	780	0.051	0.096	0.235	humanized anti-IL-25 antibody LNR125.38 (antibody, V domains shown) VH: QVTLKESGPTLVKPTQTLTLTCTFSGFSLSTSGMGVGWIRQPPGKALEWLAHIWWDDVKRYNPSLKSRLTITKDTSGSQVVLTMTNMDPVDTATYYCARTLPHFHDYWGQGTTLTVSS VL: DIQMTQSPSTLSASVGDRVTITCRASSSVSYMYWYQQKPGKAPKPLIYRTSNLASGVPSRFSGSGSGTEYTLTISSLQPDDFATYYCKQYHSYPPTWTFGGGTKVEIKR
120	130	0.128	0.168	0.17	anti-IL-25 antibody LNR125 (antibody, V domains shown) VH: QVTLKVSGPGILQPSQTLSLTCSFSGFSLNTSGMGVGWIRQPSGKGLEWLAHIWWDDVKRYNPALKSRLTISKDTSGSQVFLKIASVDTADTATYYCARTLPHFFDYWGQGTTLTVSS VL: DIQMTQSPAIMSASPGEKVTISCRASSSVSYMYWYQQKSGSSPKPWIYRTSNLASGVPARFSGSGSGTSYSLTISSMEAEDAATYYCKQYHSYPPTWTFGGGTKLEIKR
